Numbering of substitutions follows the chain as printed. Entries after “also recorded” stand apart in the source; their conditions may differ. Values belong to the molecule of their own block, whether it stands above or below them.
Assays:
[1] = system: rat carotid artery thrombosis; assay: Rat carotid artery thrombosis model, humanized mAbs, Example 8; format: in vivo; details: 3.0 mg/kg i.v. bolus, 60 minutes after onset of injury
Method: In order to evaluate the efficacy of humanized anti-Factor IX antibodies in prevention of arterial thrombosis, the rat carotid artery thrombosis model as described above in Example 3 was used. Baseline parameters were established for carotid blood flow, arterial pressure, heart rate, vessel patency and activated partial thromboplastin time (aPTT). Fifteen minutes thereafter, carotid injury was effected for […]. The parameters were determined 60 minutes after onset of carotid injury. Carotid thrombus was also extracted from the carotid artery and weighed.
All agents were administered intravenously 15 minutes before the onset of carotid injury. The following treatments were examined and compared to the anti-Factor IX mAb BC2.

[2] = biological target: T1, Recombinant human Factor IX (rhFIX) (Homo sapiens, UniProt P00740, T194A); assay: BIAcore kinetics of Factor IX binding to mAb on protein A surface; details: rhFIX 49 nM, 5 mM Ca2+, biosensor
T1 construct: purchased Genetics Institute
Method: The kinetics of Factor IX binding to SB 249417 was assessed by BIAcore analysis with antibody bound to an immobilized protein A surface. Recombinant human Factor IX (rhFIX, Genetics Institute) at 49 nM was used and measurements performed in the presence of 5 mM Ca^2+. The interaction was characterized by rapid association, kass 2.0×10^5 M^−1 s^−1 and relatively slow off-rate, kdiss=4.1×10^−4 s^−1.

BC2 antibody = assay: BiaCore binding of Factor IX/Factor VII constructs to immobilized BC2; details: 200 nM construct, 25 mM MOPS pH 7.4, 0.15 M NaCl, 5 mM CaCl2
Method: A library of chimeric constructs composed of sequences of Factor IX spliced into the framework of the homologous protein Factor VII was constructed and used to map the epitope for the Factor IX BC2 mAb. See Cheung et al., Thromb. Res. 80, 419-427 (1995). Binding was measured using a BiaCore 2000 surface plasmon resonance device. The BC2 antibody was coupled directly to the chip using the NHS/EDC reaction. Binding was measured by 2 min of contact time at 20 uL/min with 200 nM of each of the given constructs in 25 mM MOPS, pH 7.4, 0.15 M NaCl, 5 mM CaCl2. Dissociation was monitored for 3 min using the same buffer with no protein. No binding was detected to the wild type construct in the presence of 50 mM EDTA.

T1 sequence (P00740 47-461 T194A): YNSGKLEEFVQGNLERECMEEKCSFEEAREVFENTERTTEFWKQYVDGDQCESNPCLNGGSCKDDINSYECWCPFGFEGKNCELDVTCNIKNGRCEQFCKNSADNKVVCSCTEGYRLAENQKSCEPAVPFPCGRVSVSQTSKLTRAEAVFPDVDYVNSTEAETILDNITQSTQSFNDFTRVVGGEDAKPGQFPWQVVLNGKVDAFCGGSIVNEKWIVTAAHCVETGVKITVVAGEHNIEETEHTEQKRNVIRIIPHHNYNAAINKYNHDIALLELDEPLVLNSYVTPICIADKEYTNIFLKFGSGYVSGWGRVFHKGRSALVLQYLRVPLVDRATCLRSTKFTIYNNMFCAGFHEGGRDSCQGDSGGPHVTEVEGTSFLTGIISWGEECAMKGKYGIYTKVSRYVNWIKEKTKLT

B5: IX-A/VII: construct with the Factor IX gla and aromatic stack domains in Factor VII (protein)
chain: YNSGKLEEFVQGNLERECMEEKCSFEEAREVFENTERTTEFWKQYVDGDQCASSPCQNGGSCKDQLQSYICFCLPAFEGRNCETHKDDQLICVNENGGCEQYCSDHTGTKRSCRCHEGYSLLADGVSCTPTVEYPCGKIPILEKRNASKPQGRIVGGKVCPKGECPWQVLLLVNGAQLCGGTLINTIWVVSAAHCFDKIKNWRNLIAVLGEHDLSEHDGDEQSRRVAQVIIPSTYVPGTTNHDIALLRLHQPVVLTDHVVPLCLPERTFSERTLAFVRFSLVSGWGQLLDRGATALELMVLNVPRLMTQDCLQQSRKVGDSPNITEYMFCAGYSDGSKDSCKGDSGGPHATHYRGTWYLTGIVSWGQGCATVGHFGVYTRVSQYIEWLQKLMRSEPRPGVLLRAPFP
Degree of Binding to BC2 (BC2 antibody): exhibit binding to BC2; also recorded: Binds

B6: IX LC/VII HC: construct containing the Factor IX light chain and Factor VII heavy chain (protein)
chain: YNSGKLEEFVQGNLERECMEEKCSFEEAREVFENTERTTEFWKQYVDGDQCESNPCLNGGSCKDDINSYECWCPFGFEGKNCELDVTCNIKNGRCEQFCKNSADNKVVCSCTEGYRLAENQKSCEPAVPFPCGRVSVSQTSKLTRIVGGKVCPKGECPWQVLLLVNGAQLCGGTLINTIWVVSAAHCFDKIKNWRNLIAVLGEHDLSEHDGDEQSRRVAQVIIPSTYVPGTTNHDIALLRLHQPVVLTDHVVPLCLPERTFSERTLAFVRFSLVSGWGQLLDRGATALELMVLNVPRLMTQDCLQQSRKVGDSPNITEYMFCAGYSDGSKDSCKGDSGGPHATHYRGTWYLTGIVSWGQGCATVGHFGVYTRVSQYIEWLQKLMRSEPRPGVLLRAPFP
Degree of Binding to BC2 (BC2 antibody): exhibit binding to BC2; also recorded: Binds

B7: SB 257732: humanized anti-Factor IX mAb, heavy chain F9HZHC 3-0 (SEQ ID NO: 89), light chain F9HZLC 3-0 (SEQ ID NO: 99) (antibody, V domains shown)
VH: MGWSCIILFLVATATGVHSQIQLVQSGSELKKPGASVKVSCKASGYTFTNYGMNWVRQAPGQGLEWMGWINTRNGKSTYVDDFKGRFVFSLDTSVSTAYLQISSLKAEDTAVYFCTREGNMDGYFPFTYWGQGTLVTVSS
VL: MGWSCIILFLVATATGVHSQIVLTQSPSSLSASVGDRVTITCRASSSVNYMHWYQQKPGKAPKPWIYATSNLASGVPSRFSGSGSGTDYTLTISSLQPEDFATYYCQQWSINPRTFGGGTKLEIKRTVV
kass [2]: 1.1e+06 M⁻¹ s⁻¹
kdiss [2]: 0.0012 s⁻¹

B8: Chf9: mouse-human chimeric antibody directed against human Factor IX, chains F9CHLC and F9CHHC with BC2 variable regions (antibody)
heavy: QIQLVQSGPELKKPGETVKISCKASGYTFTNYGMNWVKQAPGKGLKWMGWINTRNGKSTYVDDFKGRFAFSLESSASTANLQIDNLKDEDTATYFCTREGNMDGYFPFTYWGQGTLVTVSA
light: QIVLSQSPAILSASPGEKVTMTCRASSSVNYMHWYQQKPGSSPKPWIYATSNLASGVPARFSGSGSGTSYSLTISRVEAEDAATYYCQQWSINPRTFGGGTKLEIK
kass [2]: 240000 M⁻¹ s⁻¹
kdiss [2]: 0.0003 s⁻¹

Second part, led by results:

kass [2]: 650000 M⁻¹ s⁻¹
kdiss [2]: 0.0028 s⁻¹
B1: SB 249413: humanized anti-Factor IX mAb, heavy chain F9HZHC 1-0 (SEQ ID NO: 31), light chain F9HZLC 1-0 (SEQ ID NO: 44) (antibody, V domains shown)
VH: QVQLVQSGSELKKPGASVKVSCKASGYTFTNYGMNWVRQAPGQGLEWMGWINTRNGKSTYVDDFKGRFVFSLDTSVSTAYLQISSLKADDTAVYYCAREGNMDGYFPFTYWGQGTLVTVSS
VL: EIVLTQSPATLSLSPGERATLSCRASSSVNYMHWYQQRPGQAPRLLIYATSNLASGIPARFSGSGSGTDFTLTISSLEPEDFAVYYCQQWSINPRTFGGGTKVEIKR
effect on aPTT (FIG. 8) [1]: modest effect

kass [2]: 520000 M⁻¹ s⁻¹
kdiss [2]: 0.00041 s⁻¹
B2: SB 249416: humanized anti-Factor IX mAb, heavy chain F9HZHC 1-1 (SEQ ID NO: 52), light chain F9HZLC 1-2 (SEQ ID NO: 62) (antibody, V domains shown)
VH: B1 VH with E46K, T74S, A97T
VL: B1 VL with R44K, L45P, L46W, I57V, F70Y
effect on aPTT (FIG. 8) [1]: modest effect

kass [2]: 750000 M⁻¹ s⁻¹
kdiss [2]: 0.00018 s⁻¹
B3: SB 249415: humanized anti-Factor IX mAb, heavy chain F9HZHC 1-1 (SEQ ID NO: 52), light chain F9HZLC 1-1 (SEQ ID NO: 57) (antibody, V domains shown)
VH: B1 VH with E46K, T74S, A97T
VL: B1 VL with R44K, L45P, L46W, I57V
effect on aPTT (FIG. 8) [1]: modest effect

kass [2]: 920000 M⁻¹ s⁻¹
kdiss [2]: 0.00099 s⁻¹
B4: SB 257731: humanized anti-Factor IX mAb, heavy chain F9HZHC 1-1 (SEQ ID NO: 52), light chain F9HZLC 1-3 (SEQ ID NO: 78) (antibody, V domains shown)
VH: B1 VH with E46K, T74S, A97T
VL: MGWSCIILFLVATATGVHSQIVLTQSPATLSLSPGERATLSCRASSSVNYMHWYQQRPGQAPKPWIYATSNLASGVPARFSGSGSGTDYTLTISSLEPEDFAVYYCQQWSINPRTFGGGTKVEIK
effect on aPTT (FIG. 8) [1]: modest effect
